Measurements: US20250154268A1 (NONA BIOSCIENCES SUZHOU, published 2025)
Read-outs that look alike come from different tables or passages of the source.

How the values were obtained:
[1] = target: T1, human CD25 (human, UniProt P01589 22-272); assay: flow cytometry, SU-DHL-1 cells
T1 construct: whole, on cells; Always presented on cells; also called huCD25; IL2Rα
T1 sequence (looked up): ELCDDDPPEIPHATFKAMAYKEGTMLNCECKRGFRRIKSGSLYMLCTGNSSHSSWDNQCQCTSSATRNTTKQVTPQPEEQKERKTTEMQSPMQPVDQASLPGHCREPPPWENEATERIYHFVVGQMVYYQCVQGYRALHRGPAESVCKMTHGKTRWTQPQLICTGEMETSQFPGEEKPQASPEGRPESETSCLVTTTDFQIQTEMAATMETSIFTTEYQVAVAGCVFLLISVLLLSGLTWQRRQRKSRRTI
Procedure: (§1) Briefly, the CHOK1-huCD25 cells and HEK293-cynoCD25 cells were digested, the SU-DHL-1 cells, Karpas299 cells, Treg cells and Teff cells were collected, and the cells were resuspended in PBS containing 2% BSA. The cells were adjusted to a cell density of 1×10⁶ cells/mL, respectively. […] The cells were incubated at 4° C. for 1 hour in the dark. After the incubation, the cells were rinsed twice by adding pre-chilled PBS containing 2% BSA at 100 μL/well, and centrifuged at 500 g at 4° C. for 5 minutes, and the supernatant was discarded. […] The cells were washed twice by adding pre-chilled PBS containing 2% BSA at 100 μL/well, and centrifuged at 500 g at 4° C. for 5 minutes, and the supernatant was discarded. Finally, the cells were resuspended in pre-chilled PBS containing 2% BSA at 200 μL/well, and the fluorescence signal values were read using a BD CantoII flow cytometer.

[2] = target: T2, cynomolgus monkey CD25 (cynomolgus monkey, UniProt H6WS54 22-272); assay: flow cytometry, HEK293-cynoCD25 cells
T2 construct: whole, on cells; also called cynoCD25
T2 sequence: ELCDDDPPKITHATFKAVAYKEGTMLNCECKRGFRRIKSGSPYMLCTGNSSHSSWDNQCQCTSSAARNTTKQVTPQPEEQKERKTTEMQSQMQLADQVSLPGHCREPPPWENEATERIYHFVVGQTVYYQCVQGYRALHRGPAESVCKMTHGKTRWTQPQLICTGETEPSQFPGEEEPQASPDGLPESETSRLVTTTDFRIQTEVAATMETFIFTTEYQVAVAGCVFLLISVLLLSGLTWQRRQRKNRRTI
Procedure: as §1

[3] = target: T1, human CD25; assay: flow cytometry, CHOK1-huCD25 cells
Procedure: as §1

[4] = target: T1, human CD25; assay: flow cytometry, SU-DHL-1 cells; remark: listed apart in the source
Procedure: as §1

[5] = target: T1, human CD25; assay: flow cytometry, Karpas299 cells
[6] = target: T1, human CD25; assay: flow cytometry, Karpas299 cells; remark: listed apart in the source
Procedure: as §1

[7] = target: T1, human CD25; assay: flow cytometry, Karpas299 cells; remark: listed apart in the source
Procedure: (§2) This example was intended to study the in-vitro binding activity of H2L2 monoclonal antibodies against human CD25 to human/cynomolgus monkey CD25. […] Briefly, the CHOK1-huCD25 cells and HEK293-cynoCD25 cells were digested, the SU-DHL-1 cells, Karpas299 cells, Treg cells and Teff cells were collected, and the cells were resuspended in PBS containing 2% BSA. The cells were adjusted to a cell density of 1×10⁶ cells/mL, respectively. […] The cells were incubated at 4° C. for 1 hour in the dark. After the incubation, the cells were rinsed twice by adding pre-chilled PBS containing 2% BSA at 100 μL/well, and centrifuged at 500 g at 4° C. for 5 minutes, and the supernatant was discarded. […] The cells were washed twice by adding pre-chilled PBS containing 2% BSA at 100 μL/well, and centrifuged at 500 g at 4° C. for 5 minutes, and the supernatant was discarded. Finally, the cells were resuspended in pre-chilled PBS containing 2% BSA at 200 μL/well, and the fluorescence signal values were read using a BD CantoII flow cytometer.

[8] = target: T1, human CD25; assay: flow cytometry, SU-DHL-1 cells; remark: listed apart in the source
Procedure: as §1

[9] = target: T1, human CD25; assay: flow cytometry, Karpas299 cells; remark: listed apart in the source
Procedure: as §2

[10] = target: T1, human CD25; assay: flow cytometry, SU-DHL-1 cells; remark: listed apart in the source
Procedure: as §1

[11] = target: T1, human CD25; assay: flow cytometry, SU-DHL-1 cells; remark: listed apart in the source
Procedure: as §1

[12] = target: T1, human CD25; assay: flow cytometry, SU-DHL-1 cells; remark: listed apart in the source
Procedure: as §1

[13] = target: T2, cynomolgus monkey CD25; assay: flow cytometry, HEK293-cynoCD25 cells; remark: listed apart in the source
Procedure: as §2

[14] = target: T2, cynomolgus monkey CD25; assay: flow cytometry, HEK293-cynoCD25 cells; remark: listed apart in the source
Procedure: as §2

[15] = target: T2, cynomolgus monkey CD25; assay: flow cytometry, HEK293-cynoCD25 cells; remark: listed apart in the source
Procedure: as §1

[16] = target: T1, human CD25; assay: flow cytometry, Karpas299 cells; remark: listed apart in the source
Procedure: as §1

[17] = target: T1, human CD25; assay: flow cytometry, SU-DHL-1 cells; remark: listed apart in the source
Procedure: as §1

[18] = target: T2, cynomolgus monkey CD25; assay: flow cytometry, HEK293-cynoCD25 cells; remark: listed apart in the source
Procedure: as §1

[19] = target: T1, human CD25; assay: flow cytometry, Karpas299 cells; remark: listed apart in the source
[20] = target: T1, human CD25; assay: flow cytometry, Karpas299 cells; remark: listed apart in the source
Procedure: as §2

[21] = target: T1, human CD25; assay: flow cytometry, Karpas299 cells; remark: listed apart in the source
Procedure: as §2

[22] = target: T2, cynomolgus monkey CD25; assay: flow cytometry, HEK293-cynoCD25 cells; remark: listed apart in the source
Procedure: as §1

[23] = target: T1, human CD25; assay: flow cytometry, CHOK1-huCD25 cells; remark: listed apart in the source
Procedure: as §2

[24] = target: T1, human CD25; assay: flow cytometry, SU-DHL-1 cells; remark: listed apart in the source
Procedure: as §1

[25] = target: T1, human CD25; assay: flow cytometry, Karpas299 cells; remark: listed apart in the source
[26] = target: T1, human CD25; assay: flow cytometry, SU-DHL-1 cells; remark: listed apart in the source
Procedure: as §1

- EC50 [1]: 0.95 nM
- EC50 [2]: 80.8 nM
- Maximum MFI [2]: 8590 MFI
- EC50 [3]: 40 nM
- Maximum MFI [3]: 2660 MFI
- EC50 [4]: 3.87 nM
- Maximum MFI [4]: 32900 MFI
- EC50 [5]: 5 nM
- Maximum MFI [5]: 10100 MFI
- EC50 [6]: 30 nM
- Maximum MFI [6]: 11800 MFI
- EC50 [7]: 5 nM
- EC50 [8]: 3.87 nM
- Maximum MFI [8]: 32900 MFI
- EC50 [9]: 11.8 nM
- EC50 [10]: 1.29 nM
- EC50 [11]: 1.35 nM
- EC50 [12]: 1.28 nM
- EC50 [13]: 6.75 nM
- EC50 [14]: 80.8 nM
- EC50 [15]: 20.9 nM
- Maximum MFI [15]: 89700 MFI
- EC50 [16]: 14.3 nM
- Maximum MFI [16]: 20900 MFI
- EC50 [17]: 1.4 nM
- Maximum MFI [17]: 30700 MFI
- EC50 [18]: 4.33 nM
- Maximum MFI [18]: 125000 MFI
- EC50 [19]: 5 nM
- Maximum MFI [19]: 9560 MFI
- EC50 [20]: 2.22 nM
- EC50 [21]: 3.41 nM
- EC50 [22]: 40 nM
- Maximum MFI [22]: 2660 MFI
- EC50 [23]: 45.8 nM
- EC50 [24]: 1.28 nM
- Maximum MFI [24]: 29700 MFI
- EC50 [25]: 30 nM
- Maximum MFI [25]: 11800 MFI
- EC50 [26]: 1.57 nM
- Maximum MFI [26]: 28000 MFI
B1: RG6292 (antibody, human IgG1, kappa, V domains shown)
VH: QVQLVQSGAEVKKPGSSVKVSCKASGGTFSSLAISWVRQAPGQGLEWMGGIIPIFGTANYAQKFQGRVTITADESTSTAYMELSSLRSEDTAVYYCARGGSVSGTLVDFDIWGQGTMVTVSS
VL: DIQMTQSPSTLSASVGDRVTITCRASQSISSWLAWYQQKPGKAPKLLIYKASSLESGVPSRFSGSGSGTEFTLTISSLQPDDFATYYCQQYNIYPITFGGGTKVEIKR
notes: also called PR004639; PR004639AF
